What was measured:
[1] = target: T1, UPF2L (near full-length UPF2, residues 121-1227) (UniProt Q9HAU5 121-1227); assay: native gel or EMSA; 250 nM HEX-labelled hp-RNA mixed with the proteins, 1 h on ice; native 4%-20% Tris-glycine gel, 45 min at 150 V, 4°C; HEX label of the RNA detected; RNA diluted in 25 mM HEPES pH 7.45, 100 mM NaCl, 5% glycerol; settings: both partners purified
T1 construct: Construct from Neu-Yilik et al. 2017; also called up-frameshift protein 2; source: E. coli BL21 Rosetta (DE3), purified (Ni-NTA, heparin, SEC)
T1 sequence (looked up): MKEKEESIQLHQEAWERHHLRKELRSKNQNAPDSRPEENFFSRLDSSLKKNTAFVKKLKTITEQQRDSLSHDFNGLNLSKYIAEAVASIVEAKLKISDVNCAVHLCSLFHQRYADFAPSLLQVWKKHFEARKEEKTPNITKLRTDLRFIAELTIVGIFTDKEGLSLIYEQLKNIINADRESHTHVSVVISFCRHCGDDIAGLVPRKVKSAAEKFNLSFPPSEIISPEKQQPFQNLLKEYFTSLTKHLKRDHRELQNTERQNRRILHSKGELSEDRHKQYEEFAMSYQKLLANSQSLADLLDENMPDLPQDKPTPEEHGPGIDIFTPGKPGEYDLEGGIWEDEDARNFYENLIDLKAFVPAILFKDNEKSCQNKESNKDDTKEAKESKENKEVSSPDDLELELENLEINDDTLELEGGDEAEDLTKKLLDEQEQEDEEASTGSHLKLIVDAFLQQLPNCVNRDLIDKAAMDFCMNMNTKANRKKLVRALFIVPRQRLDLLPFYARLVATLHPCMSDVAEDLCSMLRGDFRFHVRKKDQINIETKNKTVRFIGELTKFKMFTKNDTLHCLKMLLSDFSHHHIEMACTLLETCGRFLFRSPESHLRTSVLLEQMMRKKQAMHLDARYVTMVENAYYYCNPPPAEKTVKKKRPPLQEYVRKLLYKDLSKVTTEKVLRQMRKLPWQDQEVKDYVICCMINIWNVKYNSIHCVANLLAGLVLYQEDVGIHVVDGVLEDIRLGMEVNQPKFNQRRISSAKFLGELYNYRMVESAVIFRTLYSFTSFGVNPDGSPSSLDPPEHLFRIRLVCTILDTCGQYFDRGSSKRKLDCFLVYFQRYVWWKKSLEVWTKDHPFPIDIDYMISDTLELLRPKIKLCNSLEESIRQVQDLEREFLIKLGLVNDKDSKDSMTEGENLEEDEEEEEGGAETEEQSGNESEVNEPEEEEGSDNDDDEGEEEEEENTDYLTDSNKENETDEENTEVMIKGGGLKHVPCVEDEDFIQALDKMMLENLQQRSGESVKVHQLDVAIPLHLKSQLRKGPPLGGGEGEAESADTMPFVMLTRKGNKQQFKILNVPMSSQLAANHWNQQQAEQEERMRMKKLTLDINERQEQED

[2] = target: T2, UPF2 MIF4G domain-3 (residues 761-1054) (UniProt Q9HAU5 761-1054); assay: as above; settings: both partners purified
T2 construct: UPF2, third MIF4G domain, residues 761-1054; Construct from Kadlec et al. 2004; TEV site and His6 tag as said for m1; also called MIF4G-D3; D3; source: E. coli BL21 Rosetta (DE3), purified (Ni-NTA, heparin, SEC)
T2 sequence (looked up): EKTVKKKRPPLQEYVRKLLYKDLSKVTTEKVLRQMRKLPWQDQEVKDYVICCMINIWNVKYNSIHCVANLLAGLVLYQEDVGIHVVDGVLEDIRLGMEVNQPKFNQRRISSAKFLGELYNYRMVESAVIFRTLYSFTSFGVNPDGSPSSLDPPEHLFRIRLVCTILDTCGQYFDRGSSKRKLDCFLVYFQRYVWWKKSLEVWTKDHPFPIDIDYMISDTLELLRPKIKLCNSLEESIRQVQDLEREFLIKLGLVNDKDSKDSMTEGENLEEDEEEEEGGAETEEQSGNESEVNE

B1: UPF3B (residues 41-262) (domain or fragment, UniProt Q9BZI7 41-262, looked up)
chain: DRNKEKKEALSKVVIRRLPPTLTKEQLQEHLQPMPEHDYFEFFSNDTSLYPHMYARAYINFKNQEDIILFRDRFDGYVFLDNKGQEYPAIVEFAPFQKAAKKKTKKRDTKVGTIDDDPEYRKFLESYATDNEKMTSTPETLLEEIEAKNRELIAKKTTPLLSFLKNKQRMREEKREERRRREIERKRQREEERRKWKEEEKRKRKDIEKLKKIDRIPERDKL
notes: UPF3B residues 41-262: RNA-recognition motif, NOPS-Like domain and the first coiled coil-like domain; source: E. coli, purified as described (Bufton et al. 2022)
binding result [1]: binds | binding result [2]: binds

Reference: publication PMC12170185, “Dynamic RNA binding and unfolding by nonsense-mediated mRNA decay factor UPF2” (RNA, 2024)
